Source: patent publication US20160068595A1

Assays:
[1] = target: human IL-20 (interleukin-20), recombinant (human) (UniProt Q9NYY1); test: binding kinetics of CDR mutants; method not named
[2] = target: human IL-20 (interleukin-20), recombinant (human) (UniProt Q9NYY1); test: SPR, BIAcore T100; antibody captured on anti-human IgG CM5 chip, IL-20 as analyte, 1:1 model

Sequence of human IL-20 (interleukin-20), recombinant (human) (Q9NYY1 25-176 limits assumed): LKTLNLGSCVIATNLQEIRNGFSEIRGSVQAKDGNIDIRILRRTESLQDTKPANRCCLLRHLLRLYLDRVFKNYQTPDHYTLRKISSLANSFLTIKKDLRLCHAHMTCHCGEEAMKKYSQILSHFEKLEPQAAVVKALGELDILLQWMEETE

B1: HH12 humanized anti-IL-20 antibody (antibody, V domains shown)
VH: EVQLQESGGGLVQPGGSLRLSCAASGFTFSDAWMDWVRQAPGKGLEWVGEIRSKANNYATYFAESVKGRFTISRDDSKNSLYLQMNSLKTEDTGVYYCTKLSLRYWFFDVWGQGTLVTVSS
VL: DIQMTQSPLSLSVTPGQPASISCKSSQSLLDSDGKTYLNWYQQKPGQSPQLLIYLVSKLDSGVPDRFSGSGSGTDFTLKISRVEAEDVGVYYCWQSTHFPWTFGQGTKVEIKR
[1]
  Kd: 2.68 nM
  koff: 0.00358 s⁻¹
  kon: 1.34e+06 M⁻¹ s⁻¹
[2]
  Kd: 2.68 nM
  koff: 0.00358 s⁻¹
  kon: 1.34e+06 M⁻¹ s⁻¹
